Data published in US20240091360A1 (LENTIGEN TECHNOLOGY, published 2024).

T1: CD276-His (Acro biosystems) (UniProt Q5ZPR3-2 29-245, limits assumed)
T1 construct: Bought detection reagent, detected with anti-His PE
T1 sequence (looked up): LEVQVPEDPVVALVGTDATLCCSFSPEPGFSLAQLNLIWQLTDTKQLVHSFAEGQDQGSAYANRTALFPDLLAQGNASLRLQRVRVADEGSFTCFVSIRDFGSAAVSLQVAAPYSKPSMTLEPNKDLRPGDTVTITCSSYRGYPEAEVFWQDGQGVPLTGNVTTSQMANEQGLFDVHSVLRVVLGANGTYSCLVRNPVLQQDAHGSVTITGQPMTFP


Columns and labels:
[1] = target: T2, ROR1-Fc peptide (R&D System) (UniProt Q01973 30-403); assay: flow cytometry; transduced primary human T cells stained with ROR1-Fc, then anti-Fc Alexa Flour 647
T2 construct: Bought detection reagent (R&D Systems), detected with anti Fc-AF647; not shown: Fc part of the bought reagent, not described
Text: Half million CAR T cells were washed in cold AutoMACS buffer supplemented with 0.5% bovine serum albumin (Miltenyi Biotec, Bergisch Gladbach, Germany) and stained with CAR detection reagents. For ROR CAR, cells were stained with ROR1-Fc peptide (R&D System, Minneapolis, MN), followed by anti Fc-AF647 conjugate(Jackson ImmunoResearch, West Grove, PA). For MSLN CAR, cells were stained with MSLN-His (R&D System, Minneapolis, MN) […] anti-His-APC (Miltenyi Biotec). The 7-Aminoactinomycin D staining (7-AAD, BD Biosciences, San Jose, CA) was added to exclude dead cells. CD4 antibody labeled with VioBlue fluorochrome or CD8 antibody labeled with VioGreen fluorochrome was used to separate CD4 and CD8 population. Non-transduced cells (UTD) were used as a negative control. Cells were washed twice, resuspended in 200 μl running buffer, and acquired by flow cytometry. Flow cytometric analysis was performed on a MACSQuant® 10 Analyzer (Miltenyi Biotec), and data plots were generated using FlowJo software (Ashland, OR).
ROR1 and MSLN mono CARs and tandem CARs without mIL7 were included as control (FIG. 2A). CAR sequences were further incorporated into a third-generation lentiviral vectors and transduced into human primary T cells at MOI 40, to generate the ROR1 and/or MSLN CAR T cells under the control of the mammalian EF-1α promoter. Un-transduced T cells derived from same donor (UTD) were used as negative control. Surface expression of CARs with ROR1 binder on transduced T cells was measured by flow cytometry using ROR1-Fc, followed by staining with anti-Fc Alexa Flour 647. CARs with MSLN scFv surface expression was detected by MSLN-His followed by anti-His APC. […] Quantified CAR positive percentage and mean fluorescence intensity (MFI) of ROR1 binders (FIG. 2B, 2D) and MSLN binders (FIG. 2C, 2E) were plotted as bar figure.

[2] = target: T3, ROR1.Fc (Sino Biologicals) (UniProt Q01973 30-403); assay: flow cytometry of transduced primary human T cells at day 8; ROR1.Fc and anti-human Fc.AF647 are the listed reagents
T3 construct: not shown: Fc part of the bought reagent, not described
Experimental: Flow cytometric analysis was performed as previously described (12, 15, 16). All cell staining reagents for flow cytometry were from Miltenyi Biotec, unless otherwise noted. These include anti-ROR1.AF647, mouse IgG1 control. APC, anti-CD45.PE, anti-CD8. Viogreen, anti-CD3.VioBlue, anti-CD45. VioBright FITC, anti-CD45RA. APC-Vio770, anti-CD62L.PE, anti-PD1.PE-Vio770, Streptavidin. PE (Miltenyi Biotec). Cell viability solution (7-AAD), BD Pharm Lysing buffer were purchased from BD Biosciences. Anti-ROR1.AF647 was from R&D systems. ROR1.Fc was from Sino Biologicals. Anti-human Fc.AF647 was from Jackson ImmunoResearch. Countbright absolute counting beads were from ThermoFisher Scientific. Anti-TGFβRII. Biotin was from Biolegend. Stained cells were analyzed using the MACSQuant Analyzer 10 flow cytometer (Miltenyi Biotec).

[3] = target: T1, CD276-His (Acro biosystems); assay: flow cytometry; transduced primary human T cells co-stained with ROR1-Fc and CD276-His, then anti-Fc and anti-His conjugates
Text: Half million CAR T cells were washed in cold AutoMACS buffer supplemented with 0.5% bovine serum albumin (Miltenyi Biotec, Bergisch Gladbach, Germany) and stained with CAR detection reagents. For ROR1 CAR, cells were stained with ROR1-Fc peptide (R&D System, Minneapolis, MN), followed by anti Fc-AF647 conjugate(Jackson ImmunoResearch, West Grove, PA). For CD276 CAR or CCR, cells were stained with CD276-His (Acro biosystems, Newark, De), followed by anti-His PE (Miltenyi Biotech). The 7-Aminoactinomycin D staining (7-AAD, BD Biosciences, San Jose, CA) was added to exclude dead cells. CD4 antibody labeled with VioBlue was used to separate CD4 and CD8 population. Non-transduced cells (UTD) were used as a negative control. Cells were washed twice, resuspended in 200 μl running buffer, and acquired by flow cytometry. […]
CD276 specific targeting-scFvs were first evaluated in CAR context in vitro, ROR1 CAR was included as control. […] Surface expression of CD276 CARs with ROR1 binder on transduced T cells was measured by flow cytometry using CD276-His, followed by staining with anti-His PE. ROR1 CAR expression was determined as previously described. […] The target specific cytotoxicity of CD276 and/or ROR1 CARs was measured by luciferase based overnight killing assy. […]

[4] = target: T4, FolR1-Fc peptide (Acro Biosystems) (UniProt P15328 25-233); assay: flow cytometry; transduced primary human T cells stained with FolR1-Fc, then anti-Fc Alexa Flour 647
T4 construct: Bought detection reagent, detected with anti Fc-AF647; not shown: Fc part of the bought reagent, not described
Text: 0.32E6 CAR-T cells were washed in cold AutoMACS buffer supplemented with 0.5% bovine serum albumin (Miltenyi Biotec, Bergisch Gladbach, Germany) and stained with CAR detection reagents. For ROR CAR, cells were stained with ROR1-Fc peptide (R&D Systems, Minneapolis, MN) and FolR1 CAR were stained with FolR1-Fc peptide (Acro Biosystems, Newark, DE) followed by anti Fc-AF647 conjugate (Jackson ImmunoResearch, West Grove, PA). The 7-Aminoactinomycin D staining (7-AAD, BD Biosciences, San Jose, CA) was added to exclude dead cells. CD4 antibody labeled with VioBlue fluorochrome was used to separate CD4 and CD8 population. Processed mouse bone marrow and spleen were stained with human CD3 VioBlue and human CD45 FITC (Miltenyi Biotec) to determine the presence of CAR-T. To assess for memory phenotype, cells were stained with CD62L PE and CD45RA APC-Vio700 (Miltenyi Biotec). Non-transduced cells (UTD) were used as a negative control. Cells were washed twice, resuspended in 200 μl running buffer, and acquired by flow cytometry. […]
To test CAR-T functionality in vitro, ROR1 or FolR1 mono CARs with MMP-2, MMP-9, HPSE or PH-20 as booster elements were characterized. […] Surface expression of CARs with ROR1 or FolR1 binder on transduced T cells was measured by flow cytometry using ROR1-Fc or FolR1-Fc respectively, followed by staining with anti-Fc Alexa Flour 647.

T2 sequence (Q01973 30-403): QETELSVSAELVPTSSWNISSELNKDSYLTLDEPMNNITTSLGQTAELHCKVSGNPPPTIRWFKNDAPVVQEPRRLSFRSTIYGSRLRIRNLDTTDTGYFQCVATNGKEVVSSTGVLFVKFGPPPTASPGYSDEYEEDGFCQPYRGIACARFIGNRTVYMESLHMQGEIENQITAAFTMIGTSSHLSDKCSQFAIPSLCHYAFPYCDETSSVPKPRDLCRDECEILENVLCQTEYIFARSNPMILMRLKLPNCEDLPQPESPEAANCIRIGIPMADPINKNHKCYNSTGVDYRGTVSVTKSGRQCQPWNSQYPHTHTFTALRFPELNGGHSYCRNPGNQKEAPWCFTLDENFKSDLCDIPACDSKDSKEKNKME
T3 sequence (Q01973 30-403): as above
T4 sequence (P15328 25-233): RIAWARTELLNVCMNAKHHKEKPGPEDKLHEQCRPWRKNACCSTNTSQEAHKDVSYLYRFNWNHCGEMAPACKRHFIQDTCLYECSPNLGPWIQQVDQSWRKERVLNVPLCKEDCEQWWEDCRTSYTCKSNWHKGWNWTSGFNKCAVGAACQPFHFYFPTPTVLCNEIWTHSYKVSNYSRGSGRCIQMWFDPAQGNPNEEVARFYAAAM

Binder	binding result [1]	binding result [2]	binding result [3]	binding result [4]
D0290 ROR1 scFv9-IgG4 hinge-CD8TM-41BB-CD3ζ (other, CAR on transduced primary human T cells; also called CAR D0290; mono ROR1 CAR; not shown: IgG4 hinge, CD8 TM, 4-1BB, CD3ζ) QAAQVQLQQSGAEVKKPGSSVKVSCKASGGTFSSYAISWVRQAPGQGLEWMGWINPNSGGTNYAQRFQGRVTMTRDTSISTAYMELSRLRSDDTAVYYCASYNDAFDIWGQGTLVTVSSGGGGSGGGGSGGGGSNFMLTQPHSVSESPGKTVTISCTRSSGSIASNYVQWYQQRPGSAPTIVIYEDDQRPSGVPDRFSGSIDTSSNSASLTISGLQSEDEADYYCQSYEPGNGVFGGGTKVTVL	binds			
CAR LTG2529 ROR1scFv9 IgG4 CD8 BBz (other, Chimeric antigen receptor on lentivirally transduced primary human T cells; The entry includes the N-terminal leader peptide; also called ROR1 CAR LTG2529; ROR1-LTG2529) QAAQVQLQQSGAEVKKPGSSVKVSCKASGGTFSSYAISWVRQAPGQGLEWMGWINPNSGGTNYAQRFQGRVTMTRDTSISTAYMELSRLRSDDTAVYYCASYNDAFDIWGQGTLVTVSSGGGGSGGGGSGGGGSNFMLTQPHSVSESPGKTVTISCTRSSGSIASNYVQWYQQRPGSAPTIVIYEDDQRPSGVPDRFSGSIDTSSNSASLTISGLQSEDEADYYCQSYEPGNGVFGGGTKVTVLAAAESKYGPPCPPCPIYIWAPLAGTCGVLLLSLVITLYCKRGRKKLLYIFKQPFMRPVQTTQEEDGCSCRFPEEEEGGCELRVKFSRSADAPAYQQGQNQLYNELNLGRREEYDVLDKRRGRDPEMGGKPRRKNPQEGLYNELQKDKMAEAYSEIGMKGERRRGKGHDGLYQGLSTATKDTYDALHMQALPPR	binds	binds	no binding	
CAR D0351 Farle CD8 BBz (other, FolR1 CAR (Farletuzumab scFv) on transduced primary human T cells, PGK promoter; also called Farle-CD8H&TM-41BB-CD3ζ; mono-FolR1 D0351) MEVQLVESGGGVVQPGRSLRLSCSASGFTFSGYGLSWVRQAPGKGLEWVAMISSGGSYTYYADSVKGRFAISRDNAKNTLFLQMDSLRPEDTGVYFCARHGDDPAWFAYWGQGTPVTVSSASTKGGGGGSGGGGSGGGGSDIQLTQSPSSLSASVGDRVTITCSVSSSISSNNLHWYQQKPGKAPKPWIYGTSNLASGVPSRFSGSGSGTDYTFTISSLQPEDIATYYCQQWSSYPYMYTFGQGTKVEIKRTAAATTTPAPRPPTPAPTIASQPLSLRPEACRPAAGGAVHTRGLDFACDIYIWAPLAGTCGVLLLSLVITLYCKRGRKKLLYIFKQPFMRPVQTTQEEDGCSCRFPEEEEGGCELRVKFSRSADAPAYQQGQNQLYNELNLGRREEYDVLDKRRGRDPEMGGKPRRKNPQEGLYNELQKDKMAEAYSEIGMKGERRRGKGHDGLYQGLSTATKDTYDALHMQALPPR				binds
CAR D0233 MSLN M1-4S ROR1 scFv9 IgG4 CD8 BBz (other, Tandem CAR on transduced primary human T cells; also called MSLN-ROR1 scFv9-IgG4 hinge-CD8TM-41BB-CD3ζ; tandem CAR D0233) EVQLVQSGGGLVQPGGSLRLSCAASGFTFDDYAMHWVRQAPGKGLEWVSGISWNSGSIGYADSVKGRFTISRDNAKNSLYLQMNSLRAEDTALYYCAKDLSSVAGPFNYWGQGTLVTVSSGGGGSGGGGSGGGGSSSELTQDPAVSVALGQTVRITCQGDSLRSYYASWYQQKPGQAPVLVIYGKNNRPSGIPDRFSGSSSGNTASLTITGAQAEDEADYYCNSRDSSGNHLVFGGGTQLTVLGGGGGSGGGGSGGGGSGGGGSGGGGSQAAQVQLQQSGAEVKKPGSSVKVSCKASGGTFSSYAISWVRQAPGQGLEWMGWINPNSGGTNYAQRFQGRVTMTRDTSISTAYMELSRLRSDDTAVYYCASYNDAFDIWGQGTLVTVSSGGGGSGGGGSGGGGSNFMLTQPHSVSESPGKTVTISCTRSSGSIASNYVQWYQQRPGSAPTIVIYEDDQRPSGVPDRFSGSIDTSSNSASLTISGLQSEDEADYYCQSYEPGNGVFGGGTKVTVLAAAESKYGPPCPPCPIYIWAPLAGTCGVLLLSLVITLYCKRGRKKLLYIFKQPFMRPVQTTQEEDGCSCRFPEEEEGGCELRVKFSRSADAPAYQQGQNQLYNELNLGRREEYDVLDKRRGRDPEMGGKPRRKNPQEGLYNELQKDKMAEAYSEIGMKGERRRGKGHDGLYQGLSTATKDTYDALHMQALPPR	binds			
CAR LTG2527 ROR1 IgG4 CD8 BBz (other, CAR on transduced primary human T cells; also called ROR1 R12 -IgG4 hinge-CD8TM-41BB-CD3ζ; R12-ROR1 LTG2527) QEQLVESGGRLVTPGGSLTLSCKASGFDFSAYYMSWVRQAPGKGLEWIATIYPSSGKTYYATWVNGRFTISSDNAQNTVDLQMNSLTAADRATYFCARDSYADDGALFNIWGPGTLVTISSGGGGSGGGGSGGGGSELVLTQSPSVSAALGSPAKITCTLSSAHKTDTIDWYQQLQGEAPRYLMQVQSDGSYTKRPGVPDRFSGSSSGADRYLIIPSVQADDEADYYCGADYIGGYVFGGGTQLTVTGAAAESKYGPPCPPCPIYIWAPLAGTCGVLLLSLVITLYCKRGRKKLLYIFKQPFMRPVQTTQEEDGCSCRFPEEEEGGCELRVKFSRSADAPAYQQGQNQLYNELNLGRREEYDVLDKRRGRDPEMGGKPRRKNPQEGLYNELQKDKMAEAYSEIGMKGERRRGKGHDGLYQGLSTATKDTYDALHMQALPPR		binds		
